Assay: soluble on expression in E. coli; label from the status in PepcDB or PDB records

Sequence	soluble on expression in E. coli
MGSDKIHHHHHHMKTVKTHITQLLHAMNKGIFEKEHPIALSLLSAISGESIFFLGPPGVAKSLIARRLKLAFDQSTAFEYLMSRFSTPDEIFGPVSISKLKDEDKYERIIEGYLPSATIVFLDEIWKAGPSIQNSLLTVINEKVYRNGQYTIQLPLKGLIAASNELPAQGEGLEALWDRFLIRYFIGNIEQEFAFDQMIASVNDMEAEIPTGLSITEEQYTDWRTQISQIKIHYTVFELIHSIKRQIEKYNIQKEEVPHSTLYISDRRWKKIISLLRTSAFLNETDTIRFSDCTLLLHCLWNEIEQIPIIEQMVSSALDECISHYLCGERTLEQKLSSIREDMKSEHSLRETKDPALQIVDTFYHQIERYPVAGNLLIFASDYQSLQKDTQKLFYVQRDKYRPVNWILKVYDHVRNRNISQSAIVSLKKGTRSVFINNQEYPLACNAGYDIAYPQEASLPFEFRFQEVIDLYHNRENELKRMTDIELTYCKEHLFMDDKQRNMVKQILNRQKEMLEIYQNEIREIAYTHGLENKEY	not soluble
MKGGRNRWVTAQESTLALASKCEQFDPDGITLYVFSGRFKRYENVTSAKVNQIFQENDPSGTTDLAAVLKHATDDYFQRKGAGKTKPNGETILVVTDGEPDDRKAVMRVIIEASRRMDKDEELAISFIQVGSDAQATRFLKVLDDELQGAGAKFDICDTVTMEDMEDLSLSEVLLNAITDLEHHHHHH	not soluble
MREVLLEKLRTEKFLQIALDFIDINDAIKVVNEVKDLENEIIEIGTPLLKSFGIEGIRKIKSLVPDKIIVADTKTADAGDVEVEIAKLGGAHIMTVLGIMDDSTIYSAVKKARELDILVQADLINVKNVYERSKELKQLGVDIIGFHVGLDVQKSRGISVADLKNEIRKVSELNLIISIAGGLNKDRILELIDLPVSIYVVGGAITRSKEPKNVSKEIVNILKGR	not soluble
MTMDFQITRRYPCSYLPGELARSRIVVTDDTLSDSNTYAQLIQQGYRRSGSLIYRPDCDYCHACIPVRIPVELFDPNRTQRRIWKRHQHLQIAWHPLHFDPVHFDLYQRYQKSRHTNGSMDQDDENGRKQYRDFLLKSTVDSFLVTFHENEQLRMVSIIDRLPDGLSPVYTFFEPDVPGSSYGTFNILWQTAQCRADRLPYLYLGYWIANSRKMHYKANFQPLQYLIDNQWQYRTTNRLEHHHHHH	not soluble
VTSSLPTVQRVIQNALEVSQLKYSQHPRPGGAPPALIVELPGERKLKINTILSVGEHSVRVEAFVCRKPDENREDVYRFLLRRNRRLYGVAYTLDNVGDIYLVGQMALSAVDADEVDRVLGQVLEVVDSDFNALLELGFRSSIQREWQWRLSRGESLQNLQAFAHLRPTTMQSAQRDEKELGG	soluble
MGSDKIHHHHHHMDYRQPDLSVITVNYNGFHDTCEFIDSWAATVFSVSYEMIVIDNGSTANEAALLQKTYPFIQAVRSERNLGFAGGNNLGINLAKGKYLFLLNNDVCMVKDAIPLLIKRLLSSDKIAGVSPLIRDYAEPHAIQFAGYTQLSPITLRNRAIGKGKINKDHYPAQKTPYLHGAAMLLKKTIIDKLSLMPEEYFLYYEELDWCTYINREGYELWYDPACEIWHKDSSSTGKESPLKYYYLSRNRLLYAYRNLFDWKLPVSILYQTMIVCPKNILTALGKGKKAIAKAHWEGTKAFFKLRNKDKQP	not soluble
ARAEQFTTSLLSIISNNNLLAKATSESIMGAAMKAAVLNLPIEPSLGFAYVVPYNRNYKDGNRWITVNEAQFQIGYRGLIQLAQRSGQVRNIEHGIIYEEEFLGYDKIRGQLKLTGDYVDSGVVKGYFASLELISGFYKMIFWPKEKVYEHAKKYSKTFDKKTGDFKPGTPWATEFDPMAIKTLLKELLSKYAPLSVEMQDALEADNADSTIVIPKDVTPQETNSLDDLIGTQ	not soluble
MTEIVERMKKKNIVKPIVYGNTATPFGYKRDSDQHTHQWTVFLKPYLIEDPTKWIRKVQFKLHESYAVPYRVVEKPPYEVTETGWGEFEIQIRIYFVDPNEKPITAFHYLRLFQPTIELPSGNQIVCMEFYDEIIFQEPTVQMYKALQASDGKRPDKQAFLNDIEQVKTRTRELGEVAQKEIAAEIEDLRESLKDAHKMIVKYNTELAEQE	not soluble
MTWLLFGAGNGVGGCLLQRAIECEQAVVLVLRNPEQAKHWREQGVTVVEGDACDPETVAEACRVAGPSAIVVSTMGGGTVNYQGHRTVIDGAEQAGIKRMLLVTSLGCGDSWPLLSPRARAAFGFAVREKSLAESWLQSSTLDHCIVRPGGLLDVVATHNAKLTQGAATLGLVSRSDVALAVDQLLQQPVFGNHIYNLIDPDLTMPAIPLEHHHHHH	not soluble
